This test addresses purified FLAG-cortactin (rat) (UniProt Q66HL2). Kind of test: pull-down.
Chain of UniProt Q66HL2 (Q66HL2 whole entry): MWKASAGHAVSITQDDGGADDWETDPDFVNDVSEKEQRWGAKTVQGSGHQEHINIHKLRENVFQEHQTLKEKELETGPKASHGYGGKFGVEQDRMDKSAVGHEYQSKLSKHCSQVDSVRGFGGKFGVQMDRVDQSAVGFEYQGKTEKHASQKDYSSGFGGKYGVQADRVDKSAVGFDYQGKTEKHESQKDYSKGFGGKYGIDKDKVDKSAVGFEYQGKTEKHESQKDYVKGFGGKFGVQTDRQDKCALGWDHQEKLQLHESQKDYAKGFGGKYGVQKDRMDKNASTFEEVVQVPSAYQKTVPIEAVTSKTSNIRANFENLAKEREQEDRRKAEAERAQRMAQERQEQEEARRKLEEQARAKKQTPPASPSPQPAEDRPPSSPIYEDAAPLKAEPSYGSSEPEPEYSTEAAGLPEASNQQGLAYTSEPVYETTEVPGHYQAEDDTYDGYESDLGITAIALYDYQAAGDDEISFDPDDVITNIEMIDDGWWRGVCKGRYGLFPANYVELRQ

Usually Kd stands for the constant that tells how readily two partners part at equilibrium. A low value points to a tighter complex. As for “purified shootin1 wild type (natural protein)”, the Kd came to 25 nM.
